Reference: paper PMC6559209

Molecular target: YlHD, hydrophilic domain of the Yarrowia lipolytica group 3 LEA protein (Yarrowia lipolytica)
Assay: MST; HD labelled with RED-NHS at 2 uM; label-free LDH titrated, diluted from 71 uM; binding buffer 20 mM HEPES, 150 mM KCl, pH 7.4 (the legend says phosphate buffer); normal conditions; Monolith NT.115, 20% LED, 60% MST power

A Kd of 5.03 µM was found for lactate dehydrogenase (LDH) (enzyme) in this work.
